{"source": "the supplement of paper PMC9112550", "about": "“Optimization of the antimicrobial peptide Bac7 by deep mutational scanning” (BMC Biology, 2022);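 further: peptides expressed intracellularly from a pBAD plasmid library in pooled LB shake-flask culture, induced with 0.3% L-arabinose, DNA abundance read by NGS, three biological replicates, DESeq2 with apeglm shrinkage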", "data": [{"test_system": "Escherichia coli TOP10", "experiment": "shrunken log2 fold change of peptide-encoding DNA abundance (4.5 h post-induction vs induction); higher = less antimicrobial activity (less host growth inhibition)", "conditions": "time post-induction: 4.5 h; library: site-saturation at positions 5, 18, 19, 20", "values": [{"sequence": "RRIRERPPRLPRPRPRPNPVPRP", "shrunken log2 fold change": -0.424}, {"sequence": "RRIRCRPPRLPRPRPRPWWYPRP", "shrunken log2 fold change": -0.136}, {"sequence": "RRIRGRPPRLPRPRPRPSLEPRP", "shrunken log2 fold change": 0.827}, {"sequence": "RRIRVRPPRLPRPRPRPSSMPRP", "shrunken log2 fold change": -0.157}, {"sequence": "RRIRLRPPRLPRPRPRPEDWPRP", "shrunken log2 fold change": 0.544}, {"sequence": "RRIRSRPPRLPRPRPRPTIWPRP", "shrunken log2 fold change": 0.393}, {"sequence": "RRIRDRPPRLPRPRPRPAPDPRP", "shrunken log2 fold change": 0.533}, {"sequence": "RRIRTRPPRLPRPRPRPTMGPRP", "shrunken log2 fold change": 0.0301}, {"sequence": "RRIRARPPRLPRPRPRPWLFPRP", "shrunken log2 fold change": 0.547}, {"sequence": "RRIRFRPPRLPRPRPRPNSDPRP", "shrunken log2 fold change": -0.209}, {"sequence": "RRIRGRPPRLPRPRPRPDGKPRP", "shrunken log2 fold change": 0.0293}, {"sequence": "RRIRCRPPRLPRPRPRPARHPRP", "shrunken log2 fold change": 0.061}, {"sequence": "RRIRKRPPRLPRPRPRPKPRPRP", "shrunken log2 fold change": 1.06}, {"sequence": "RRIRKRPPRLPRPRPRPYYCPRP", "shrunken log2 fold change": 0.32}, {"sequence": "RRIRMRPPRLPRPRPRPYNHPRP", "shrunken log2 fold change": -0.491}, {"sequence": "RRIRHRPPRLPRPRPRPALSPRP", "shrunken log2 fold change": -0.257}, {"sequence": "RRIRERPPRLPRPRPRPGRFPRP", "shrunken log2 fold change": 0.0216}, {"sequence": "RRIRKRPPRLPRPRPRPNTLPRP", "shrunken log2 fold change": -0.0816}, {"sequence": "RRIRERPPRLPRPRPRPAIDPRP", "shrunken log2 fold change": -0.457}, {"sequence": "RRIRFRPPRLPRPRPRPFKIPRP", "shrunken log2 fold change": -0.049}, {"sequence": "RRIRGRPPRLPRPRPRPHEWPRP", "shrunken log2 fold change": 0.116}, {"sequence": "RRIRARPPRLPRPRPRPWIKPRP", "shrunken log2 fold change": -0.0328}, {"sequence": "RRIRSRPPRLPRPRPRPDFPPRP", "shrunken log2 fold change": 0.0768}, {"sequence": "RRIRERPPRLPRPRPRPAAIPRP", "shrunken log2 fold change": -0.215}, {"sequence": "RRIRDRPPRLPRPRPRPQLTPRP", "shrunken log2 fold change": 0.0489}, {"sequence": "RRIRGRPPRLPRPRPRPWVTPRP", "shrunken log2 fold change": 0.0039}, {"sequence": "RRIRSRPPRLPRPRPRPMFVPRP", "shrunken log2 fold change": -0.0773}, {"sequence": "RRIRFRPPRLPRPRPRPYDNPRP", "shrunken log2 fold change": -0.775}, {"sequence": "RRIRMRPPRLPRPRPRPARGPRP", "shrunken log2 fold change": 1.1}, {"sequence": "RRIRHRPPRLPRPRPRPRETPRP", "shrunken log2 fold change": 0.0714}, {"sequence": "RRIRQRPPRLPRPRPRPVLEPRP", "shrunken log2 fold change": 0.198}, {"sequence": "RRIRLRPPRLPRPRPRPIQFPRP", "shrunken log2 fold change": -0.0198}, {"sequence": "RRIRCRPPRLPRPRPRPNPMPRP", "shrunken log2 fold change": -0.246}, {"sequence": "RRIRSRPPRLPRPRPRPSGIPRP", "shrunken log2 fold change": -0.169}, {"sequence": "RRIRTRPPRLPRPRPRPPCWPRP", "shrunken log2 fold change": 0.171}, {"sequence": "RRIRARPPRLPRPRPRPTWSPRP", "shrunken log2 fold change": 0.67}, {"sequence": "RRIRWRPPRLPRPRPRPPPEPRP", "shrunken log2 fold change": 0.822}, {"sequence": "RRIRPRPPRLPRPRPRPMKVPRP", "shrunken log2 fold change": -0.0686}, {"sequence": "RRIRLRPPRLPRPRPRPVAMPRP", "shrunken log2 fold change": 0.0144}, {"sequence": "RRIRDRPPRLPRPRPRPHYKPRP", "shrunken log2 fold change": -0.297}, {"sequence": "RRIRFRPPRLPRPRPRPVNLPRP", "shrunken log2 fold change": 0.025}, {"sequence": "RRIRQRPPRLPRPRPRPAAGPRP", "shrunken log2 fold change": 0.0657}, {"sequence": "RRIRCRPPRLPRPRPRPRFQPRP", "shrunken log2 fold change": 0.234}, {"sequence": "RRIRERPPRLPRPRPRPNAPPRP", "shrunken log2 fold change": 0.0774}, {"sequence": "RRIRHRPPRLPRPRPRPSLPPRP", "shrunken log2 fold change": -0.328}, {"sequence": "RRIRWRPPRLPRPRPRPFGAPRP", "shrunken log2 fold change": 0.197}, {"sequence": "RRIRPRPPRLPRPRPRPWAGPRP", "shrunken log2 fold change": -0.0189}, {"sequence": "RRIRGRPPRLPRPRPRPVRLPRP", "shrunken log2 fold change": 0.525}, {"sequence": "RRIRERPPRLPRPRPRPYMMPRP", "shrunken log2 fold change": -0.259}, {"sequence": "RRIRYRPPRLPRPRPRPKTTPRP", "shrunken log2 fold change": -0.0197}, {"sequence": "RRIRPRPPRLPRPRPRPEEQPRP", "shrunken log2 fold change": 0.00406}, {"sequence": "RRIRPRPPRLPRPRPRPRVVPRP", "shrunken log2 fold change": 0.341}, {"sequence": "RRIRARPPRLPRPRPRPFEGPRP", "shrunken log2 fold change": 0.0201}, {"sequence": "RRIRHRPPRLPRPRPRPTTMPRP", "shrunken log2 fold change": -0.261}, {"sequence": "RRIRYRPPRLPRPRPRPNQKPRP", "shrunken log2 fold change": -0.0988}, {"sequence": "RRIRRRPPRLPRPRPRPIQQPRP", "shrunken log2 fold change": -0.0495}, {"sequence": "RRIRMRPPRLPRPRPRPCISPRP", "shrunken log2 fold change": 0.00253}, {"sequence": "RRIRIRPPRLPRPRPRPCEIPRP", "shrunken log2 fold change": -0.0178}, {"sequence": "RRIRHRPPRLPRPRPRPVPCPRP", "shrunken log2 fold change": 0.337}, {"sequence": "RRIRMRPPRLPRPRPRPLTVPRP", "shrunken log2 fold change": 0.169}, {"sequence": "RRIRDRPPRLPRPRPRPMGAPRP", "shrunken log2 fold change": 1.43}, {"sequence": "RRIRHRPPRLPRPRPRPNVNPRP", "shrunken log2 fold change": -0.555}, {"sequence": "RRIRRRPPRLPRPRPRPPDSPRP", "shrunken log2 fold change": 0.289}, {"sequence": "RRIRDRPPRLPRPRPRPGAGPRP", "shrunken log2 fold change": 0.914}, {"sequence": "RRIRGRPPRLPRPRPRPKFDPRP", "shrunken log2 fold change": 0.867}, {"sequence": "RRIRGRPPRLPRPRPRPHQKPRP", "shrunken log2 fold change": 0.0462}, {"sequence": "RRIRWRPPRLPRPRPRPNREPRP", "shrunken log2 fold change": -0.0677}, {"sequence": "RRIRCRPPRLPRPRPRPIFFPRP", "shrunken log2 fold change": -0.0793}, {"sequence": "RRIRKRPPRLPRPRPRPCHQPRP", "shrunken log2 fold change": 0.124}, {"sequence": "RRIRTRPPRLPRPRPRPFQWPRP", "shrunken log2 fold change": -0.0875}, {"sequence": "RRIRQRPPRLPRPRPRPQFPPRP", "shrunken log2 fold change": -0.202}, {"sequence": "RRIRYRPPRLPRPRPRPFFFPRP", "shrunken log2 fold change": -0.253}, {"sequence": "RRIRGRPPRLPRPRPRPIEIPRP", "shrunken log2 fold change": -0.0543}, {"sequence": "RRIRLRPPRLPRPRPRPFHWPRP", "shrunken log2 fold change": -0.000687}, {"sequence": "RRIRWRPPRLPRPRPRPNYIPRP", "shrunken log2 fold change": -0.57}, {"sequence": "RRIRRRPPRLPRPRPRPGGGPRP", "shrunken log2 fold change": 0.841}, {"sequence": "RRIRQRPPRLPRPRPRPPIVPRP", "shrunken log2 fold change": -0.015}, {"sequence": "RRIRGRPPRLPRPRPRPIAEPRP", "shrunken log2 fold change": 3.26}, {"sequence": "RRIRIRPPRLPRPRPRPSYLPRP", "shrunken log2 fold change": -0.831}, {"sequence": "RRIRNRPPRLPRPRPRPVGSPRP", "shrunken log2 fold change": 0.0409}, {"sequence": "RRIRNRPPRLPRPRPRPLMYPRP", "shrunken log2 fold change": -0.158}, {"sequence": "RRIRLRPPRLPRPRPRPMREPRP", "shrunken log2 fold change": 1.25}, {"sequence": "RRIRQRPPRLPRPRPRPHMWPRP", "shrunken log2 fold change": -0.129}, {"sequence": "RRIRMRPPRLPRPRPRPFGGPRP", "shrunken log2 fold change": 0.222}, {"sequence": "RRIRDRPPRLPRPRPRPCVFPRP", "shrunken log2 fold change": 0.37}, {"sequence": "RRIRRRPPRLPRPRPRPTRGPRP", "shrunken log2 fold change": 0.661}, {"sequence": "RRIRFRPPRLPRPRPRPVFPPRP", "shrunken log2 fold change": -0.224}, {"sequence": "RRIRCRPPRLPRPRPRPSDQPRP", "shrunken log2 fold change": -0.0132}, {"sequence": "RRIRLRPPRLPRPRPRPILPPRP", "shrunken log2 fold change": -0.0368}, {"sequence": "RRIRGRPPRLPRPRPRPWSYPRP", "shrunken log2 fold change": -0.157}, {"sequence": "RRIRLRPPRLPRPRPRPTYKPRP", "shrunken log2 fold change": -0.244}, {"sequence": "RRIRGRPPRLPRPRPRPHDMPRP", "shrunken log2 fold change": -0.204}, {"sequence": "RRIRCRPPRLPRPRPRPKSEPRP", "shrunken log2 fold change": -0.0877}, {"sequence": "RRIRIRPPRLPRPRPRPDWAPRP", "shrunken log2 fold change": -0.0489}, {"sequence": "RRIRPRPPRLPRPRPRPNHNPRP", "shrunken log2 fold change": -0.755}, {"sequence": "RRIRWRPPRLPRPRPRPGLWPRP", "shrunken log2 fold change": 1.16}, {"sequence": "RRIRMRPPRLPRPRPRPHWFPRP", "shrunken log2 fold change": 0.0685}, {"sequence": "RRIRPRPPRLPRPRPRPHRPPRP", "shrunken log2 fold change": 0.0359}, {"sequence": "RRIRVRPPRLPRPRPRPEHHPRP", "shrunken log2 fold change": -0.334}, {"sequence": "RRIRIRPPRLPRPRPRPRQDPRP", "shrunken log2 fold change": 0.0231}, {"sequence": "RRIRFRPPRLPRPRPRPWSTPRP", "shrunken log2 fold change": -0.0601}, {"sequence": "RRIRHRPPRLPRPRPRPAHFPRP", "shrunken log2 fold change": 0.165}, {"sequence": "RRIRVRPPRLPRPRPRPKLYPRP", "shrunken log2 fold change": -0.0874}, {"sequence": "RRIRQRPPRLPRPRPRPLCWPRP", "shrunken log2 fold change": -0.0481}, {"sequence": "RRIRSRPPRLPRPRPRPWTQPRP", "shrunken log2 fold change": 0.149}, {"sequence": "RRIRQRPPRLPRPRPRPTGWPRP", "shrunken log2 fold change": 0.19}, {"sequence": "RRIRVRPPRLPRPRPRPHLSPRP", "shrunken log2 fold change": -0.301}, {"sequence": "RRIRCRPPRLPRPRPRPIMFPRP", "shrunken log2 fold change": -0.388}, {"sequence": "RRIRDRPPRLPRPRPRPNFAPRP", "shrunken log2 fold change": 0.605}, {"sequence": "RRIRERPPRLPRPRPRPVPYPRP", "shrunken log2 fold change": -0.132}, {"sequence": "RRIRERPPRLPRPRPRPRDCPRP", "shrunken log2 fold change": 0.112}, {"sequence": "RRIRPRPPRLPRPRPRPIACPRP", "shrunken log2 fold change": 0.0852}, {"sequence": "RRIRPRPPRLPRPRPRPANSPRP", "shrunken log2 fold change": 0.00247}, {"sequence": "RRIRTRPPRLPRPRPRPLTHPRP", "shrunken log2 fold change": -0.0616}, {"sequence": "RRIRQRPPRLPRPRPRPPFQPRP", "shrunken log2 fold change": 0.0422}, {"sequence": "RRIRWRPPRLPRPRPRPMARPRP", "shrunken log2 fold change": 0.00968}, {"sequence": "RRIRDRPPRLPRPRPRPMDQPRP", "shrunken log2 fold change": 0.326}, {"sequence": "RRIRGRPPRLPRPRPRPTDYPRP", "shrunken log2 fold change": -0.00915}, {"sequence": "RRIRRRPPRLPRPRPRPQQFPRP", "shrunken log2 fold change": 0.0492}, {"sequence": "RRIRQRPPRLPRPRPRPIFAPRP", "shrunken log2 fold change": 0.146}, {"sequence": "RRIRIRPPRLPRPRPRPDIMPRP", "shrunken log2 fold change": -0.121}, {"sequence": "RRIRKRPPRLPRPRPRPIARPRP", "shrunken log2 fold change": -0.0481}, {"sequence": "RRIRARPPRLPRPRPRPNRKPRP", "shrunken log2 fold change": 0.131}, {"sequence": "RRIRGRPPRLPRPRPRPATYPRP", "shrunken log2 fold change": 0.235}, {"sequence": "RRIRTRPPRLPRPRPRPQNCPRP", "shrunken log2 fold change": -0.373}]}]}
